# Reference: publication PMC9303355 (Diabetes, Obesity & Metabolism, 2022)
# How the values were obtained:
# Assay type in all cases: in vivo, healthy subjects (human)
# Safety assessments = conditions: single 0.3 IU/kg s.c.
# [1] = Pharmacokinetics of plasma insulin after a single subcutaneous dose; conditions: healthy subjects, single 0.3 IU/kg s.c., PP population, median
# [2] = tested on: blood glucose (glucose infusion rate); assay: Automated euglycaemic glucose clamp; conditions: healthy subjects; single 0.3 IU/kg s.c.; PP population; median, N=39/38
substance,measurement,setting,value
Humulin‐R: US‐approved reference regular recombinant human insulin product (Eli Lilly and Company),tolerability,Safety assessments; healthy subjects,generally well tolerated
same,headache (number of events),Safety assessments; safety analysis set,eight
same,injection‐site reactions (number of AEs),Safety assessments; safety analysis set,four
same,subjects with headache,Safety assessments; safety analysis set,eight
same,subjects with injection‐site reactions,Safety assessments; safety analysis set,three
same,λz (terminal elimination rate constant of insulin),[1]; N=40/41,0.5373 h⁻¹
same,t50%‐ins(late),[1]; N=41,6.23 h
same,t50%‐GIR(early),[2],1.33 h
same,t50%‐GIR(late),[2],7.03 h
same,tGIR.max (time to maximum glucose infusion rate),[2],4.15 h
